From the supplement of paper PMC9170038

System: MS2 coat protein
Experiment: apparent KD of MS2 coat protein; designed switch direction (-1 OFF switch, 1 ON switch): 1; higher = weaker reporter binding
Summary of the method: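 On Illumina chips, designed RNA switches with common flanks were made by stalled E. coli RNA polymerase. Titrations with SNAP-549-labelled MS2 coat protein, doubling from 0.7 or 1.5 nM to 3 µM, were done with no input, with 200 uM small-molecule ligand, or with an oligonucleotide input. Apparent KD is the median per design over clusters, from curve fits of normalised cluster fluorescence.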

[1] = input ligand: microRNA oligo, concentration not stated
[2] = Eterna round: R95, input ligand: FMN 200 uM
[3] = Eterna round: R95, input ligand: microRNA oligo, concentration not stated
[4] = Eterna round: R95, input ligand: none

| Sequence | apparent KD of MS2 coat protein (input ligand: FMN 200 uM) [nM] | apparent KD of MS2 coat protein [1] [nM] | apparent KD of MS2 coat protein (input ligand: none) [nM] | apparent KD of MS2 coat protein [2] [nM] | apparent KD of MS2 coat protein [3] [nM] | apparent KD of MS2 coat protein [4] [nM] |
| --- | --- | --- | --- | --- | --- | --- |
| UUGAGGAAUUAAGGAUAUUGAGUACAUAUGUUUAACAUGAGGAUCACCCAUGUGGGUUGCGGUAUCGAGAAGGUAAAUUACUAG [JL SSNG2 1.46] (Eterna round: R96, puzzle: Same State NG 2) | 141 | 83.8 | 168 |  |  |  |
| UGUUGUUAAUUAGGAUAUGGUCACAUGAGGAUCACCCAUGUAAUGUCGAUGCUAUGUGGAUUUGAUCAGAAGGAAUGGUUAACA [SameState NG2 #98] (Eterna round: R96, puzzle: Same State NG 2) | 49.2 | 62.3 | 90.4 |  |  |  |
| GUCCAAAACACAGGAUAUCCCAGUCAUGAUCUGGGAGAAGGGUGGCCACAUGAGGAUCACCCAUGUGAAGUGCCAGAGGCACGA [Xexeraed] (Eterna round: R96, puzzle: Same State NG 1) | 373 | 876 | 1020 |  |  |  |
| GGUAGGUUACUACCAAACAUGAGGAUCACCCAUGUAAGUGGGAAGGAUAUGGUACCUAUUUGGUACCAGAAGGUCUAAUUAAUU [Fiskers NG3ss - 2] (Eterna round: R96, puzzle: Same State NG 3) | 444 | 59.9 | 1230 |  |  |  |
| AAAGAACAUGAGGAUCACCCAUGUGGAAGAGGCACAGGAUAUCACCUCGCAAGUACGAGGUGAGAAGGGUGAUGAU [Araa] (puzzle: Same State 1) |  |  |  | 183 | 154 | 426 |
| UGACACACGGCAGGAUAUGCUUAGCAAAGCUAAGCAGAAGGGCCUCAUGUCGUGGAAAUGUGACAUGAGGAUCACCCAUGUUGC [Omei SS(NG)1 Cv6] (Eterna round: R96, puzzle: Same State NG 1) | 39.3 | 20.7 | 92.2 |  |  |  |
| GUUAGGAAUCUAGCAUACAUGAGGAUCACCCAUGUAAGUGGGAAGGAUAUGGUACAGAAACUGUACCAGAAGGUCUUAUUGUUU [Omei SS(NG) 3 AV7] (Eterna round: R96, puzzle: Same State NG 3) | 149 | 366 | 330 |  |  |  |
| UAAAGUUAGCGAGGAUAUCGUUUAUUGAAGUUACGAGAAGGCGCUCUUCUUACAUGAGGAUCACCCAUGUCUGUUUUGCAUGAU [JR_SSNG1_Sub067] (Eterna round: R96, puzzle: Same State NG 1) | 52 | 63 | 71.3 |  |  |  |
| CGUCCGGCCUGUGCUGGCCGGUUGCUUGUACAUGAGGAUCACCCAUGUUCAUGUGCAGGCUUUUUGCUCGUCUUGUG [salish99_mir208a_015] (puzzle: Sensor for hsa-mir-208a) |  |  |  | 38.3 | 31.1 | 45.8 |
| UGAAUAGUGAUAGGAUAUACAUGAGGAAUCCUCGUAGAAGGAUCAUAACAUGAGGAUCACCCAUGUAGCCGUCAGAAGACGGCA [Mat - Same State NG 1 - JL mod - D57] (Eterna round: R96, puzzle: Same State NG 1) | 94.6 | 284 | 178 |  |  |  |
| GUGGCACAUGAGGAUCACCCAUGUAGGUAGAACAUAGGAUAUCACCAACAAAAUACCUGGUGAGAAGGAUGAUGCC [Zaesleer] (puzzle: Same State 1) |  |  |  |  | 143 |  |
| GCGAGCGUACUUGCAGACAUGAGGAUCACCCAUGUAACUGGACAGGAUAUGGUACCGUUUCGGUACCAGAAGGGUUCACUCAUG [JL SSNG3 3.58] (Eterna round: R96, puzzle: Same State NG 3) | 388 | 119 | 176 |  |  |  |
| CCGGCAAGUAUAGGAUAUCCCGCAACAGAAGCGGGAGAAGGGUGCCAAACAUGAGGAUCACCCAUGUACACCGGAAAUAAAUAA [Veaat] (Eterna round: R96, puzzle: Same State NG 1) | 92.9 | 46.6 | 30.5 |  |  |  |
| AGGCAAGCUUUUUGCUUGUAUGCAGGAGAACAUGAGGAUCACCCAUGUCUUGGAGGUGUUGAAAAUAAGAGAAUGCA [JR_SHM208A_Sub006] (puzzle: Sensor for hsa-mir-208a) |  |  |  | 63.9 | 72.8 | 93.9 |
| UUCACCUUUUAUAACAUGAGGAUCACCCAUGUAUAUUGUACGUAGGAUAUCGAUGUUAGUUUUUUCGAGAAGGACGAUGUAAGU [JR_SSND3_Sub049] (Eterna round: R96, puzzle: Same State NG 3) | 29.6 | 40.7 | 53.9 |  |  |  |
| UGGUACAUGGGAGGAUAUGGGCAUGAGACAUGAGGAUCACCCAUGUAUUAUAAGCCGAAAGGCAUCUAGAAGGCCCAUGUACCU [JL SSNG1 3.84] (Eterna round: R96, puzzle: Same State NG 2) | 14.2 | 68.3 | 92.4 |  |  |  |
| CUCAAAACAAGUUGCAGUGUUCGUCUUUAACAUGAGGAUCACCCAUGUAAUAGCCCGGUGGAAGCGCUCGGGCUACC [Edtireisge] (puzzle: Sensor for hsa-mir-208a) |  |  |  | 39.8 | 24 | 45.5 |
| ACGCUAGUCACAGGAUAUCCGAAAUAUAGCAAAGGAGAAGGGUGAUUAACAUGAGGAUCACCCAUGUAAAAGAAGAAAGAAGAU [Edargebi] (Eterna round: R96, puzzle: Same State NG 1) | 173 | 167 | 186 |  |  |  |
| GGAAUAUGAUGUUACAUGAGGAUCACCCAUGUAGUGAUAACUAAGGAUAUCUGAAAGGAAGGAGAGGAGAAGGUAGGAUCAUAA [AK SSNG3-V2-13] (Eterna round: R96, puzzle: Same State NG 3) | 40.1 | 35.3 | 53.2 |  |  |  |
| AUUUAACAAGCUUUUUGCUCGUCUUAUAAACAUGAGGAUCACCCAUGUAAUAGCGUGAGAGUAAUUAAUUUAAUUAU [JMF 100] (puzzle: Sensor for hsa-mir-208a) |  |  |  | 15.5 | 32.7 | 14.1 |
| GCUGCAAAGGCAGGAUAUGGGUUCAGAGCGGAAGUGCGCUUUGACACAUGAGGAUCACCCAUGUCCCAGAAGGGCCCAAGCGGC [Ateanso] (Eterna round: R96, puzzle: Same State NG 2) | 21.2 | 120 | 178 |  |  |  |
| AAUCGUUUGAUAGGAUAUCGCUAUACAUGAGGAUCACCCAUGUUUACCACGCUGGUUUUUCAUACCGAGAAGGAUUCUGAUGAU [JL JR sub007 mod 10] (Eterna round: R96, puzzle: Same State NG 2) | 36 | 31.2 | 35.2 |  |  |  |
| UUAAUGAAGUAAGGAUAUACAUGAGGAUCACUCGUAGAAGGUACUAUACAUGAGGAUCACCCAUGUGCCGGUCCGUAGACUGGA [JL SSNG1 1.03] (Eterna round: R96, puzzle: Same State NG 1) | 554 | 184 | 1090 |  |  |  |
